Laboratory results: US20140179896A1 (published 2014)

B1: 1′DelAl PR4 (designed binder)
chain: EVVAATPTSLLISWRHPHFPTRYYRITYGETGGNSPVQEFTVPLQPPTATISGLKPGVDYTITGYAVTVAQNDHELLTPISINYRT
notes: Del 1-8
B2: 1′DelE7 PR4 (designed binder)
chain: EVVAATPTSLLISWRHPHFPTRYYRITYGETGGNSPVQEFTVPLQPPTATISGLKPGVDYTITGYAVTVAQNGHELFTPISINYRT
notes: Del 1-8
B3: 2′Del F5 PR4 (designed binder)
chain: EVVAATPTSLLISWRHPHFPTRYYRITYGETGGNSPVQEFTVPLQPPTATISGLKPGVDYTITGYAVTLVHNDRELLTPISINYRT
notes: Del 1-8
B4: 2′Del E3 PR4 (designed binder)
chain: EVVAATPTSLLISWRHPHFPTRYYRITYGETGGNSPVQEFTVPLQPPTATISGLKPGVDYTITGYAVTLGPYEHELLTPISINYRT
notes: Del 1-8
B5: 1′DelH5 PR4 (designed binder)
chain: EVVAATPTSLLISWRHPHFPTRYYRITYGETGGNSPVQEFTVPLQPPTATISGLKPGVDYTITGYAVTVAQNDRELFTPISINYRT
notes: Del 1-8
B6: 2′Del B5 PR4 (designed binder)
chain: EVVAATPTSLLISWRHPHFPTRYYRITYGETGGNSPVQEFTVPLQPPTATISGLKPGVDYTITGYAVTAGRHDHELIIPISINYRT
notes: Del 1-8
B7: 2′Del D5 PR4 (designed binder)
chain: EVVAATPTSLLISWRHPHFPTRYYRITYGETGGNSPVQEFTVPLQPPTATISGLKPGVDYTITGYAVTVAWNDHMLMTPISINYRT
notes: Del 1-8
B8: 2′Del F1 PR4 (designed binder)
chain: EVVAATPTSLLISWRHPHFPTRYYRITYGETGGNSPVQEFTVPLQPPTATISGLKPGVDYTITGYAVTRDQYEHELLTPISINYRT
notes: Del 1-8
B9: 2′Del B2 PR4 (designed binder)
chain: EVVAATPTSLLISWRHPHFPTRYYRITYGETGGNSPVQEFTVPLQPPTATISGLKPGVDYTITGYAVTTGWNGNELFTPISINYRT
notes: Del 1-8
B10: 2′Del C8 PR4 (designed binder)
chain: EVVAATPTSLLISWRHPHFPTRYYRITYGETGGNSPVQEFTVPLQPPTATISGLKPGVDYTITGYAVTTAHNGHELLTPISINYRT
notes: Del 1-8
B11: 1′DelD1 PR4 (designed binder)
chain: EVVAATPTSLLISWRHPHFPTRYYRITYGETGGNSPVQEFTVPLQPPTATISGLKPGVDYTITGYAVTVTQNDHELLTPISINYRT
notes: Del 1-8
B12: 1′DelA2 PR4 (designed binder)
chain: EVVAATPTSLLISWRHPHFPTRYYRITYGETGGNSPVQEFTVPLQPPTATISGLKPGVDYTITGYAVTVAQNGHQLFTPISINYRT
notes: Del 1-8
B13: 1′DelE2 PR4 (designed binder)
chain: EVVAATPTSLLISWRHPHFPTRYYRITYGETGGNSPVQEFTVPLQPPTATISGLKPGVDYTITGYAVTVGQNDHELLTPISINYRT
notes: Del 1-8
B14: 2′Del A11 PR4 (designed binder)
chain: EVVAATPTSLLISWRHPHFPTRYYRITYGETGGNSPVQEFTVPLQPPTATISGLKPGVDYTITGYAVTEDIRVLWLNTTISINYRT
notes: Del 1-8
B15: 2′Del D3 PR4 (designed binder)
chain: EVVAATPTSLLISWRHPHFPTRYYRITYGETGGNSPVQEFTVPLQPPTATISGLKPGVDYTITGYAVTSGLNDRVLFIPISINYRT
notes: Del 1-8
B16: 1′DelF3 PR4 (designed binder)
chain: EVVAATPTSLLISWRHPHFPTRYYRITYGETGGNSPVQEFTVPLQPPTATISGLKPGVDYTITGYAVTMAQNDHKLFTPISINYRT
notes: Del 1-8
B17: 2′Del A2 PR4 (designed binder)
chain: EVVAATPTSLLISWRHPHFPTRYYRITYGETGGNSPVQEFTVPLQPPTATISGLKPGVDYTITGYAVTGGRNGHTLLTPISINYRT
notes: Del 1-8
B18: 1′DelE6 PR4 (designed binder)
chain: EVVAATPTSLLISWRHPHFPTRYYRITYGETGGNSPVQEFTVPLQPPTATISGLKPGVDYTITGYAVTLAQNDRELLTPISINYRT
notes: Del 1-8
B19: 2′Del C5 PR4 (designed binder)
chain: EVVAATPTSLLISWRHPHFPTRYYRITYGETGGNSPVQEFTVPLQPPTATISGLKPGVDYTITGYAVTPGHNDHELMVPISINYRT
notes: Del 1-8
B20: 1′DelD5 PR4 (designed binder)
chain: EVVAATPTSLLISWRHPHFPTRYYRITYGETGGNSPVQEFTVPLQPPTATISGLKPGVDYTITGYAVTVGQNHHELFTPISINYRT
notes: Del 1-8
B21: 2′Del B4 PR4 (designed binder)
chain: EVVAATPTSLLISWRHPHFPTRYYRITYGETGGNSPVQEFTVPLQPPTATISGLKPGVDYTITGYAVTSGHNGHEVMTPISINYRT
notes: Del 1-8
B22: 2′Del D1 PR4 (designed binder)
chain: EVVAATPTSLLISWRHPHFPTRYYRITYGETGGNSPVQEFTVPLQPPTATISGLKPGVDYTITGYAVTLEQNDRVLLTPISINYRT
notes: Del 1-8
B23: 2′Del D10 PR4 (designed binder)
chain: EVVAATPTSLLISWRHPHFPTRYYRITYGETGGNSPVQEFTVPLQPPTATISGLKPGVDYTITGYAVTLADNARELLTPISINYRT
notes: Del 1-8
B24: 2′Del C6 PR4 (designed binder)
chain: EVVAATPTSLLISWRHPHFPTRYYRITYGETGGNSPVQEFTVPLQPPTATISGLKPGVDYTITGYAVTMGFMAHELMVPISINYRT
notes: Del 1-8
B25: 2′Del C11 PR4 (designed binder)
chain: EVVAATPTSLLISWRHPHFPTRYYRITYGETGGNSPVQEFTVPLQPPTATISGLKPGVDYTITGYAVTAGLNEHELLIPISINYRT
notes: Del 1-8
B26: 2′Del C1 PR4 (designed binder)
chain: EVVAATPTSLLISWRHPHFPTRYYRITYGETGGNSPVQEFTVPLQPPTATISGLKPGVDYTITGYAVTAGLDEHELLIPISINYRT
notes: Del 1-8
B27: 2′Del E6 PR4 (designed binder)
chain: EVVAATPTSLLISWRHPHFPTRYYRITYGETGGNSPVQEFTVPLQPPTATISGLKPGVDYTITGYAVTMGKNGHELLTPISINYRT
notes: Del 1-8
B28: 2′Del B3 PR4 (designed binder)
chain: EVVAATPTSLLISWRHPHFPTRYYRITYGETGGNSPVQEFTVPLQPPTATISGLKPGVDYTITGYAVTDAPNGRELMVPISINYRT
notes: Del 1-8
B29: 1′Del G10 PR4 (designed binder)
chain: EVVAATPTSLLISWRHPHFPTRYYRITYGETGGNSPVQEFTVPLQPPTATISGLKPGVDYTITGYAVTMAQNGHKLMTPISINYRT
notes: Del 1-8
B30: 1′DelD2 PR4 (designed binder)
chain: EVVAATPTSLLISWRHPHFPTRYYRITYGETGGNSPVQEFTVPLQPPTATISGLKPGVDYTITGYAVTVAKNDHELLTPISINYRT
notes: Del 1-8
B31: 1′DelH12 PR4 (designed binder)
chain: EVVAATPTSLLISWRHPHFPTRYYRITYGETGGNSPVQEFTVPLQPPTATISGLKPGVDYTITGYAVTVAQNERELFTPISINYRT
notes: Del 1-8
B32: 2′Del E5 PR4 (designed binder)
chain: EVVAATPTSLLISWRHPHFPTRYYRITYGETGGNSPVQEFTVPLQPPTATISGLKPGVDYTITGYAVTEGLNDHELIIPISINYRT
notes: Del 1-8
B33: 1′DelH10 PR4 (designed binder)
chain: EVVAATPTSLLISWRHPHFPTRYYRITYGETGGNSPVQEFTVPLQPPTATISGLKPGVDYTITGYAVTFAQNDHELLTPISINYRT
notes: Del 1-8
B34: 2′Del F7 PR4 (designed binder)
chain: EVVAATPTSLLISWRHPHFPTRYYRITYGETGGNSPVQEFTVPLQPPTATISGLKPGVDYTITGYAVTLGLRDRELFVPISINYRT
notes: Del 1-8

These binders were tested against T1, human vascular endothelial growth factor receptor-2 Fc chimera (KDR-Fc) (human, UniProt P35968 20-764) (assay: radioactive equilibrium binding, 1 nM KDR-Fc).
T1 construct: range 1-764; also called human VEGFR-2; VEGF-R2-Fc; not shown: human IgG1 Fc
T1 sequence (P35968 20-764 limits assumed, change not shown, form in doubt): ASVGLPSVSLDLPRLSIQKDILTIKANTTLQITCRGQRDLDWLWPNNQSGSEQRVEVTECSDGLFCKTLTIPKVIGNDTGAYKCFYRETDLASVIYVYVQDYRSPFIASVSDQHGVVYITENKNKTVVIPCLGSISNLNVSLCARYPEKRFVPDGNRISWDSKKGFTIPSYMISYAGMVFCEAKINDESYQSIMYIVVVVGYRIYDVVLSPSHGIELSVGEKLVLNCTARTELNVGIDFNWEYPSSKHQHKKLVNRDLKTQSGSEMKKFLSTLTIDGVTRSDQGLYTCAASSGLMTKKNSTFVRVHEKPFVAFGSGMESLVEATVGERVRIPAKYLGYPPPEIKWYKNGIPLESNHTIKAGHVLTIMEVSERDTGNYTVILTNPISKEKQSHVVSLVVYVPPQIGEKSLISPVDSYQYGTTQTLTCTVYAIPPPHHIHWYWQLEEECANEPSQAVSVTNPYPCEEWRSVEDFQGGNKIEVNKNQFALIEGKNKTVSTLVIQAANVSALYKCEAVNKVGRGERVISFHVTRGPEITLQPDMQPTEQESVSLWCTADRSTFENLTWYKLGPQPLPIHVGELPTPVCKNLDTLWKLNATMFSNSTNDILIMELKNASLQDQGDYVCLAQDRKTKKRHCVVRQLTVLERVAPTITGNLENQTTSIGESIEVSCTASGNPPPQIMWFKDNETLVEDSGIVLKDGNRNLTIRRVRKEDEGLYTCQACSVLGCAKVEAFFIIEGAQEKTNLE
Description: To prepare ³⁵S-labeled binding proteins for analysis, mRNA was prepared as described above for RNA-protein fusion production but the linker ligation step was omitted. The mRNA was expressed using rabbit reticulocyte lysate translation kit (Ambion) in the presence of ³⁵S-labeled Met at 30° C. for 1 hour. Expressed protein was purified on M2-agarose Flag beads (Sigma) as described above. This procedure produced the encoded protein without the nucleic acid tail. In a direct binding assay, VEGF-R2-Fc fusions in concentrations ranging from 0 to 200 nM were added to a constant concentration of the purified protein (0.2 or 0.5 nM) and incubated at 30° C. for 1 hour in buffer B. The receptor-binder complexes were captured using Protein A magnetic beads for another 10 minutes at room temperature using a Kingfisher™ The beads were washed with six reaction volumes of buffer B. The protein was eluted from the beads with 100 μL of 0.1 M KOH. […] of the reaction mixture and elution were dried onto a LumaPlate-96 (Packard) and the amount of ³⁵S on the plate was measured using a TopCount NXT instrument (Packard). The amount of fibronectin-based scaffold protein bound to the target was estimated as a percent of radioactivity eluted from Protein A magnetic beads compare to radioactivity in the reaction mixture. Nonspecific binding of fibronectin-based scaffold proteins to the beads was determined by measuring binding in the absence of KDR-Fc and represented less than 1-2% of the input. Specific binding was obtained through subtraction of nonspecific binding from total binding. Data was analyzed using the GraphPad Prizm software (GraphPad Software, Inc, San Diego, Calif.), fitted using a one site, non-linear binding equation.
B1 was tested, and the “Binding to 1 nM KDR, %” value was 14%. B2 was tested, and the “Binding to 1 nM KDR, %” value was 22%. B3 was tested, and the “Binding to 1 nM KDR, %” value was 22%. In the case of B4, the “Binding to 1 nM KDR, %” value is reported as 33%. With B5 the “Binding to 1 nM KDR, %” value was 17%. With B6 the “Binding to 1 nM KDR, %” value was 33%. For B7, the “Binding to 1 nM KDR, %” value was 18%. For B8, the “Binding to 1 nM KDR, %” value was 20%. B9 was tested, and the “Binding to 1 nM KDR, %” value was 29%. In the case of B10, the “Binding to 1 nM KDR, %” value is reported as 15%. In the case of B11, the “Binding to 1 nM KDR, %” value is reported as 16%. For B12, the “Binding to 1 nM KDR, %” value was 23%. With B13 the “Binding to 1 nM KDR, %” value was 16%. With B14 the “Binding to 1 nM KDR, %” value was 16%. For B15, the “Binding to 1 nM KDR, %” value was 38%. With B16 the “Binding to 1 nM KDR, %” value was 16%. With B17 the “Binding to 1 nM KDR, %” value was 17%. For B18, the “Binding to 1 nM KDR, %” value was 24%. With B19 the “Binding to 1 nM KDR, %” value was 26%. For B20, the “Binding to 1 nM KDR, %” value was 17%. B21 was tested, and the “Binding to 1 nM KDR, %” value was 31%. B22 was tested, and the “Binding to 1 nM KDR, %” value was 28%. B23 was tested, and the “Binding to 1 nM KDR, %” value was 34%. In the case of B24, the “Binding to 1 nM KDR, %” value is reported as 34%. B25 was tested, and the “Binding to 1 nM KDR, %” value was 34%. B26 was tested, and the “Binding to 1 nM KDR, %” value was 32%. With B27 the “Binding to 1 nM KDR, %” value was 43%. With B28 the “Binding to 1 nM KDR, %” value was 17%. In the case of B29, the “Binding to 1 nM KDR, %” value is reported as 36%. B30 was tested, and the “Binding to 1 nM KDR, %” value was 17%. In the case of B31, the “Binding to 1 nM KDR, %” value is reported as 18%. B32 was tested, and the “Binding to 1 nM KDR, %” value was 19%. With B33 the “Binding to 1 nM KDR, %” value was 17%. With B34 the “Binding to 1 nM KDR, %” value was 38%.
